Assay results reported in patent US20060257938A1, “Method of screening for drugs that block ligand binding to a lipid binding protein” (priority 2005, published 2006).
Values joined by “and” are separate entries in the source; they are usually repeats but may differ in a detail not shown here. Equal entries are not always repeated.

B1: 55T1, 72A (protein, listed as Rattus norvegicus)
chain: AFDGTWKVDRNENYEKFMEKMGINVVKRKLGAHDNLKLTITQEGNKFTVKESSNTRNIDVVFELGVDFAYSAADGTELTGTWTMEGNKLVGKFKRVDNGKELIAVREISGNELIQTYTYEGVEAKRIFKKE
modifications: PEPTIDE (1)...(131) wild-type rat intestinal fatty acid binding protein
B2: 60H, 72A (protein, listed as Rattus norvegicus)
chain: AFDGTWKVDRNENYEKFMEKMGINVVKRKLGAHDNLKLTITQEGNKFTVKESSNFRNIDHVFELGVDFAYSAADGTELTGTWTMEGNKLVGKFKRVDNGKELIAVREISGNELIQTYTYEGVEAKRIFKKE
modifications: PEPTIDE (1)...(131) wild-type rat intestinal fatty acid binding protein
B3: 60P, 72A (protein, listed as Rattus norvegicus)
chain: AFDGTWKVDRNENYEKFMEKMGINVVKRKLGAHDNLKLTITQEGNKFTVKESSNFRNIDPVFELGVDFAYSAADGTELTGTWTMEGNKLVGKFKRVDNGKELIAVREISGNELIQTYTYEGVEAKRIFKKE
modifications: PEPTIDE (1)...(131) wild-type rat intestinal fatty acid binding protein
B4: 60C, 72A (protein, listed as Rattus norvegicus)
chain: AFDGTWKVDRNENYEKFMEKMGINVVKRKLGAHDNLKLTITQEGNKFTVKESSNFRNIDCVFELGVDFAYSAADGTELTGTWTMEGNKLVGKFKRVDNGKELIAVREISGNELIQTYTYEGVEAKRIFKKE
modifications: PEPTIDE (1)...(131) wild-type rat intestinal fatty acid binding protein
B5: 60M, 72A (protein, listed as Rattus norvegicus)
chain: AFDGTWKVDRNENYEKFMEKMGINVVKRKLGAHDNLKLTITQEGNKFTVKESSNFRNIDMVFELGVDFAYSAADGTELTGTWTMEGNKLVGKFKRVDNGKELIAVREISGNELIQTYTYEGVEAKRIFKKE
modifications: PEPTIDE (1)...(131) wild-type rat intestinal fatty acid binding protein
B6: 60N, 72A (protein, listed as Rattus norvegicus)
chain: AFDGTWKVDRNENYEKFMEKMGINVVKRKLGAHDNLKLTITQEGNKFTVKESSNFRNIDNVFELGVDFAYSAADGTELTGTWTMEGNKLVGKFKRVDNGKELIAVREISGNELIQTYTYEGVEAKRIFKKE
modifications: PEPTIDE (1)...(131) wild-type rat intestinal fatty acid binding protein
B7: 55W2, 72A (protein, listed as Rattus norvegicus)
chain: AFDGTWKVDRNENYEKFMEKMGINVVKRKLGAHDNLKLTITQEGNKFTVKESSNWRNIDVVFELGVDFAYSAADGTELTGTWTMEGNKLVGKFKRVDNGKELIAVREISGNELIQTYTYEGVEAKRIFKKE
modifications: PEPTIDE (1)...(131) wild-type rat intestinal fatty acid binding protein
B8: 60I, 72A (protein, listed as Rattus norvegicus)
chain: AFDGTWKVDRNENYEKFMEKMGINVVKRKLGAHDNLKLTITQEGNKFTVKESSNFRNIDIVFELGVDFAYSAADGTELTGTWTMEGNKLVGKFKRVDNGKELIAVREISGNELIQTYTYEGVEAKRIFKKE
modifications: PEPTIDE (1)...(131) wild-type rat intestinal fatty acid binding protein
B9: 60L, 72A (protein, listed as Rattus norvegicus)
chain: AFDGTWKVDRNENYEKFMEKMGINVVKRKLGAHDNLKLTITQEGNKFTVKESSNFRNIDLVFELGVDFAYSAADGTELTGTWTMEGNKLVGKFKRVDNGKELIAVREISGNELIQTYTYEGVEAKRIFKKE
modifications: PEPTIDE (1)...(131) wild-type rat intestinal fatty acid binding protein
B10: 60A, 72A (protein, listed as Rattus norvegicus)
chain: AFDGTWKVDRNENYEKFMEKMGINVVKRKLGAHDNLKLTITQEGNKFTVKESSNFRNIDAVFELGVDFAYSAADGTELTGTWTMEGNKLVGKFKRVDNGKELIAVREISGNELIQTYTYEGVEAKRIFKKE
modifications: PEPTIDE (1)...(131) wild-type rat intestinal fatty acid binding protein
B11: 60G, 72A (protein, listed as Rattus norvegicus)
chain: AFDGTWKVDRNENYEKFMEKMGINVVKRKLGAHDNLKLTITQEGNKFTVKESSNFRNIDGVFELGVDFAYSAADGTELTGTWTMEGNKLVGKFKRVDNGKELIAVREISGNELIQTYTYEGVEAKRIFKKE
modifications: PEPTIDE (1)...(131) wild-type rat intestinal fatty acid binding protein
B12: 55Y3, 72A (protein, listed as Rattus norvegicus)
chain: AFDGTWKVDRNENYEKFMEKMGINVVKRKLGAHDNLKLTITQEGNKFTVKESSNYRNIDVVFELGVDFAYSAADGTELTGTWTMEGNKLVGKFKRVDNGKELIAVREISGNELIQTYTYEGVEAKRIFKKE
modifications: PEPTIDE (1)...(131) wild-type rat intestinal fatty acid binding protein
B13: 60F, 72A (protein, listed as Rattus norvegicus)
chain: AFDGTWKVDRNENYEKFMEKMGINVVKRKLGAHDNLKLTITQEGNKFTVKESSNFRNIDFVFELGVDFAYSAADGTELTGTWTMEGNKLVGKFKRVDNGKELIAVREISGNELIQTYTYEGVEAKRIFKKE
modifications: PEPTIDE (1)...(131) wild-type rat intestinal fatty acid binding protein
B14: 60K, 72A (protein, listed as Rattus norvegicus)
chain: AFDGTWKVDRNENYEKFMEKMGINVVKRKLGAHDNLKLTITQEGNKFTVKESSNFRNIDKVFELGVDFAYSAADGTELTGTWTMEGNKLVGKFKRVDNGKELIAVREISGNELIQTYTYEGVEAKRIFKKE
modifications: PEPTIDE (1)...(131) wild-type rat intestinal fatty acid binding protein
B15: 60Q, 72A (protein, listed as Rattus norvegicus)
chain: AFDGTWKVDRNENYEKFMEKMGINVVKRKLGAHDNLKLTITQEGNKFTVKESSNFRNIDQVFELGVDFAYSAADGTELTGTWTMEGNKLVGKFKRVDNGKELIAVREISGNELIQTYTYEGVEAKRIFKKE
modifications: PEPTIDE (1)...(131) wild-type rat intestinal fatty acid binding protein

What was measured:
Assay type in all cases: binding
Details in all cases: response relative to ADIFAB2
[1] = Probe fluorescence ratio response to oleic acid relative to ADIFAB2
Procedure, shortened: (§1)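 Each fatty acid's response was expressed relative to ADIFAB2, the rI-FABP-L72A probe, as ΔR/ΔRreference. ΔR is the change in the background-corrected two-wavelength intensity ratio R=Fλ1/Fλ2 from its analyte-free baseline R0. Emission was read near about 420-480 nm for unbound and about 495-580 nm for FFA-bound probe.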

[2] = Probe fluorescence ratio response to linoleic acid relative to ADIFAB2
Procedure, shortened: as §1

[3] = Probe fluorescence ratio response to arachidonic acid relative to ADIFAB2
Procedure, shortened: as §1

[4] = Probe fluorescence ratio response to linolenic acid relative to ADIFAB2
Procedure, shortened: as §1

[5] = Probe fluorescence ratio response to palmitic acid relative to ADIFAB2
Procedure, shortened: as §1

Row | Molecule | DR/DR OA [1] | DR/DR LA [2] | DR/DR AA ([3]; Arachidonic acid) | DR/DR LNA [4] | DR/DR PA [5] | DR/DR AA ([3]; arachidonic acid)
1 | B1 | 1.28 | 1.25 | 1.26 | 1.27 | 1.12 | 
2 | B2 | 0.17 | 0.17 | 0.17 | 0.18 | 0.12 | 
3 | B3 | 0.81 | 0.81 | 0.62 | 0.77 | 0.37 | 
4 | B4 | 1.34 | 1.33 | 1.30 | 1.36 | 1.04 | 
5 | B5 | 0.91 | 1.01 | 0.77 | 0.93 | 0.76 | 
6 | B6 | 1.54 | 1.57 | 1.24 | 1.59 | 1.30 | 
7 | B7 | 0.70 | 0.79 | 0.77 | 0.82 | 0.63 | 
8 | B8 | 1.72 and 1.723 | 1.73 | 1.54 | 1.63 and 1.632 | 1.52 | 1.539
9 | B9 | 1.27 and 1.272 | 1.29 and 1.285 | 1.08 | 1.26 | 1.10 and 1.095 | 1.075
10 | B10 | 0.94 and 0.936 | 0.98 and 0.977 | 0.79 | 0.94 and 0.938 | 0.74 and 0.742 | 0.787
11 | B11 | 0.24 | 0.25 | 0.29 | 0.24 | 0.19 | 
12 | B12 | 0.33 | 0.32 | 0.47 | 0.34 | 0.25 | 
13 | B13 | 1.90 and 1.896 | 1.68 and 1.684 | 1.79 | 1.76 and 1.762 | 1.53 and 1.526 | 1.792
14 | B14 | 0.60 and 0.626 | 0.62 and 0.619 | 0.46 | 0.57 and 0.582 | 0.35 and 0.310 | 0.461
15 | B15 | 0.41 | 0.41 | 0.36 | 0.42 | 0.35 | 
